Legend:
CD27蛋白 = molecular target: T1, CD27蛋白 (Homo sapiens (Human), UniProt P26842 20-260); assay: flow cytometry on CHO-K1-CD27 cells, antibody at 0.1-300 μg/mL, Alexa-647 anti-human Fc secondary antibody
T1 construct: also called CHO-K1-CD27细胞; Jurkat-NFAT-lucia-CD27细胞
T1 sequence: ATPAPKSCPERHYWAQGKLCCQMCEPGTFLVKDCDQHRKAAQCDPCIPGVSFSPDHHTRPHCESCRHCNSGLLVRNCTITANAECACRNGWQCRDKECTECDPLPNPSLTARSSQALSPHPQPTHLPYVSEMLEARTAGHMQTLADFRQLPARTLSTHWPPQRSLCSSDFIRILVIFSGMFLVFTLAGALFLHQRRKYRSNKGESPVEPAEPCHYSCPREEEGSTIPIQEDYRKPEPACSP

Nectin-4蛋白 = molecular target: T2, Nectin-4蛋白 (Homo sapiens (Human), UniProt Q96NY8 32-510); assay: flow cytometry on CHO-K1-Nectin-4 cells, antibody at 0.1-300 μg/mL, Alexa-647 anti-human Fc secondary antibody
T2 construct: also called PVRL4; CHO-K1-Nectin-4细胞
T2 sequence: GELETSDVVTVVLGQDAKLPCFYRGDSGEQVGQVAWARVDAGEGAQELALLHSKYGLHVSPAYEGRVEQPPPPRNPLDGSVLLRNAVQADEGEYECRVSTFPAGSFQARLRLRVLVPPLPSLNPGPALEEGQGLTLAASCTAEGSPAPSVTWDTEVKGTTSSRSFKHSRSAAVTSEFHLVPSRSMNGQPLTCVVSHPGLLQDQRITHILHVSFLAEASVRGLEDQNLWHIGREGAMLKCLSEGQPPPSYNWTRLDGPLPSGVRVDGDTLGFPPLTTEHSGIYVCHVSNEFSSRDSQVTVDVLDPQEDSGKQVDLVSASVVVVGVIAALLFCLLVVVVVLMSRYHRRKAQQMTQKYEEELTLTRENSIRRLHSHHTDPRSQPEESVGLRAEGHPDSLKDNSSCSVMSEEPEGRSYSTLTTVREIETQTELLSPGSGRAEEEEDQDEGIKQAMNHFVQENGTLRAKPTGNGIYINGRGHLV

B1: 抗体CD27×Nectin-4 (bispecific antibody, human IgG1, kappa, L234A L235A)
scFv: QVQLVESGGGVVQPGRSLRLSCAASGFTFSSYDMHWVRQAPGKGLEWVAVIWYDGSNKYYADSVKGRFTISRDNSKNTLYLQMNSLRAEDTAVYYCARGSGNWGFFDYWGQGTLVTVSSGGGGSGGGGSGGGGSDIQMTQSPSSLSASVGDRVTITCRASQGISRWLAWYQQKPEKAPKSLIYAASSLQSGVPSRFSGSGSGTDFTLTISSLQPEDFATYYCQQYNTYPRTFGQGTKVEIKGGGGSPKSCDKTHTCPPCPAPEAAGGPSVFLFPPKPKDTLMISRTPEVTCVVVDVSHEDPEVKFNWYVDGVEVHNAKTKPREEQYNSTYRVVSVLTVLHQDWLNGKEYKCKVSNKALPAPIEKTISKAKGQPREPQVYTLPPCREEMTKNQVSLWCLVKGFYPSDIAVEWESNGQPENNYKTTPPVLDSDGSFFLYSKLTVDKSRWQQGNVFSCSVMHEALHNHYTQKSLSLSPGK
heavy: EVQLVESGGGLVQPGGSLRLSCAASGFTFSSYNMNWVRQAPGKGLEWVSYISSSSSTIYYADSVKGRFTISRDNAKNSLSLQMNSLRDEDTAVYYCARAYYYGMDVWGQGTTVTVSSASTKGPSVFPLAPSSKSTSGGTAALGCLVKDYFPEPVTVSWNSGALTSGVHTFPAVLQSSGLYSLSSVVTVPSSSLGTQTYICNVNHKPSNTKVDKKVEPKSCDKTHTCPPCPAPEAAGGPSVFLFPPKPKDTLMISRTPEVTCVVVDVSHEDPEVKFNWYVDGVEVHNAKTKPREEQYNSTYRVVSVLTVLHQDWLNGKEYKCKVSNKALPAPIEKTISKAKGQPREPQVCTLPPSREEMTKNQVSLSCAVKGFYPSDIAVEWESNGQPENNYKTTPPVLDSDGSFFLVSKLTVDKSRWQQGNVFSCSVMHEALHNHYTQKSLSLSPGK
light: DIQMTQSPSSVSASVGDRVTITCRASQGISGWLAWYQQKPGKAPKFLIYAASTLQSGVPSRFSGSGSGTDFTLTISSLQPEDFATYYCQQANSFPPTFGGGTKVEIKRTVAAPSVFIFPPSDEQLKSGTASVVCLLNNFYPREAKVQWKVDNALQSGNSQESVTEQDSKDSTYSLSSTLTLSKADYEKHKVYACEVTHQGLSSPVTKSFNRGEC
notes: also called CD27×Nectin-4抗体; CD27×Nectin-4双特异抗体
binding result (CD27蛋白): binds
binding result (Nectin-4蛋白): binds

Source: CN115368463A (HEFEI TIANGANG IMMUNOLOGY PHARMACEUTICAL CO LTD, dated 2022)
